Results published in paper PMC10881151 (Molecular Biology of the Cell, 2024).
Read-outs that look alike come from different tables or passages of the source.

Columns and labels:
AUC = target: the molecule itself; assay: AUC
[1] = target: T1, actin filaments (rabbit skeletal muscle actin) (rabbit, UniProt P68135 1-377); assay: co-sedimentation
[2] = target: T1, actin filaments (rabbit skeletal muscle …); assay: co-sedimentation; remark: listed apart in the source

- Kd [1]: 1.2 µM
- Kd [2]: 1.7 µM
B1: Drp1-WT (full-length human DRP1 isoform 3) (enzyme, UniProt O00429-4 1-699, looked up)
chain: MEALIPVINKLQDVFNTVGADIIQLPQIVVVGTQSSGKSSVLESLVGRDLLPRGTGIVTRRPLILQLVHVSQEDKRKTTGEENGVEAEEWGKFLHTKNKLYTDFDEIRQEIENETERISGNNKGVSPEPIHLKIFSPNVVNLTLVDLPGMTKVPVGDQPKDIELQIRELILRFISNPNSIILAVTAANTDMATSEALKISREVDPDGRRTLAVITKLDLMDAGTDAMDVLMGRVIPVKLGIIGVVNRSQLDINNKKSVTDSIRDEYAFLQKKYPSLANRNGTKYLARTLNRLLMHHIRDCLPELKTRINVLAAQYQSLLNSYGEPVDDKSATLLQLITKFATEYCNTIEGTAKYIETSELCGGARICYIFHETFGRTLESVDPLGGLNTIDILTAIRNATGPRPALFVPEVSFELLVKRQIKRLEEPSLRCVELVHEEMQRIIQHCSNYSTQELLRFPKLHDAIVEVVTCLLRKRLPVTNEMVHNLVAIELAYINTKHPDFADACGLMNNNIEEQRRNRLARELPSAVSRDKVASGGGGVGDGVQEPTTGNWRGMLKTSKAEELLAEEKSKPIPIMPASPQKGHAVNLLDVPVPVARKLSAREQRDCEVIERLIKSYFLIVRKNIQDSVPKAVMHFLVNHVKDTLQSELVGQLYKSSLLDDLLTESEDMAQRRKEAADMLKALQGASQIIAEIRETHLW
- stoichiometry N (AUC): 2
